Source: the supplement of paper PMC10567573

B1: KCNAB2 (parent)
chain: IPPYSRASLKGYQWLKDKILSEEG
B2: PSD2 (parent)
chain: PLMGETQERERVLTHFSRRYCQCN

Variants of: B1
Experiment: protein stability index of a GFP-peptide fusion (GPS, HEK-293T) (PSI 1-6); higher = more stable
Details: c terminus: a fixed tail appended
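Also: lentivirally expressed fusions sorted by FACS into six bins by GFP to DsRed ratio, PSI derived from sequencing read proportions per bin multiplied by bin number.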

Protein stability index of substitutions, site by site:
Y12: V 2.71; E 3.87; L 2.51; K 4.35; N 3.13; G 3.5; C 3.04; P 3.17
L15: C 3.47; G 3.2; Y 2.19; N 3.64; Q 3.52; K 3.22; W 2.18; T 3.08; A 3.71; V 2.91; M 2.47
G24: K 2.61; A 2.31; E 3.1; D 3.48; Q 3.79; W 1.35; M 2.56; H 2.09; I 1.81
A7: V 2.41; K 1.9; L 3.23; S 3.32; R 1.95; Q 2.58; E 2.86
I1: M 2.19; P 2.82; H 2.59; E 3.38; S 3.37; D 3.51
L20: E 3.75; I 2.29; D 3.91; M 2.47; N 3.06; H 2.16; C 2.63; S 2.92; Q 2.8
K10: W 2.29; C 1.72; R 1.68; Q 3.27; M 2.4; H 2.91; D 3.49; Y 2.84; N 2.42
S8: H 2.97; P 2.64; I 1.58; G 1.96; E 1.31; A 2.6; D 2.53
K18: V 3.75; Q 3.23; D 2.77; T 2.11; G 2.95; P 2.83; W 1.39; L 1.6; F 1.96; I 1.71; E 2.95; R 1.02; A 2.63
S5: N 2.21; G 3.42; T 2.42; Q 2.45
S21: P 2.45; W 3.22; G 1.86; F 2.28; Y 2.08; V 1.67; T 2.31; M 2.43; I 2.3
I19: Y 2.58; V 3.17; F 2.21; P 3.8; M 3.53; H 2.98; L 2.86
P2: F 2.2; H 1.92; C 1.88; R 2.62; M 1.37; N 1.86
E23: H 1.76; T 3.2; R 2.43; D 1.51; P 1.6; Q 2.39; A 3.77
D17: I 1.69; R 1.91; F 2.25; K 2.04; G 2.03; C 1.3; H 2.69; Y 1.8; P 2.46; E 1.26; Q 2.18; S 1.6; T 1.68; M 1.57
Y4: A 2.77; W 1.12; E 4.16; C 1.6; D 4.41; I 2.29
K16: P 3.39; Y 1.84; D 3.77; R 3.2; G 3.26; T 2.74; V 2.08; I 2.49; M 1.71
W14: I 3.45; D 3.73; Q 3.04; T 3.3; Y 3.32; K 3.65; F 4.47; E 3.59; R 3.73; S 2.95; A 3.76
G11: S 1.64; D 2.89; N 2.68; E 3.51; C 1.92; T 2.1; F 3.33; K 1.78
R6: G 2.53; Q 3.23; T 2.59; N 2.74; A 2.82; K 2.56; E 3.93; V 1.7; M 1.95; I 2.06
P3: H 1.74; I 2.28; R 3.2; A 2.27; G 1.78; C 1.51
E22: G 1.68; P 2.48; H 1.45; W 2.74; F 2.12
L9: C 1.77; M 2.24; P 3.25; S 3.84; R 3.33; E 3.2; I 2.56; Q 2.28
Q13: G 1.93; K 1.74; D 3.63; H 2.46; T 2.55; A 1.82; F 2.6

Variants of: B2
Experiment: as above
Details: c terminus: a fixed tail appended

Protein stability index of substitutions, site by site:
R11: A 3.42; W 2.19; I 2.35; C 3.88; K 2.87
R19: Y 1.98; L 2.4; E 3.74; H 3.24
L13: M 3.3; C 4.49; G 3.52; D 3.18
H15: V 2.31; L 2.7; W 1.2
Y20: H 2.43; E 4.57; I 2.62
P1: W 2.3; V 2.4; R 4.31; A 1.96; Q 2.81; S 2.98
Q22: N 3.18; E 3.96; A 3.55; D 3.85; L 2.39; P 2.71; R 3.98
F16: R 2.21; N 3.58; Q 4.78; Y 2.99; G 3.84; I 2.67; D 4.44
M3: L 3.15; A 3.72; E 3.3; K 3.13; F 2.77
C21: K 2.88; V 3.68; P 3.92; S 3.53; A 3.46; F 3.27
G4: N 2.92; L 2.02; C 2.49; W 2.07; Q 2.43; I 2.76
N24: V 2.69; F 2.79; C 3.05
E10: W 1.87; V 2.31; H 2.23; A 2.07; N 2.8; M 1.93; Y 1.73; D 2.44; L 2.27
R9: E 4.05; Y 2.14; M 2.16; V 2.94; F 2.23; P 3.29; A 3.5; K 3.21; L 2.41
S17: F 1.68; V 2.44; C 4.84; M 2.51; I 1.49; P 3.18; T 2.15; Y 2.89; A 2.11
T14: G 2.83; N 2.63; A 2.62; M 2.72; F 2.63
Q7: N 2.9; K 2.4; L 2.61; H 3.23
R18: Q 2.77; Y 1.97; N 3.06; F 1.99; A 3.49; E 4.21; S 3.54
C23: H 3.44; W 2.67; T 3.87; S 3.87
T6: E 3.05; W 2.83; F 2.22; S 2.18; R 2.95; C 4.24; D 2.98; I 2.38
E8: G 2.35; W 1.65; H 1.97; V 1.71; Y 1.79; P 2.27
V12: P 2.94; A 3.49; H 3.24; R 3.15; C 4.07; E 3.34; K 2.96; F 3.5
L2: V 3.35; W 2.58; F 2.41; R 3.08; N 3.42; E 3.91
E5: Y 1.83; K 2.2; Q 2.07; D 2.38
